In article PMC9302186, “Defining variant-resistant epitopes targeted by SARS-CoV-2 antibodies: A global consortium study” (Science (New York, N.y.), 2021):

Target: T1, SARS-CoV-2 spike receptor binding domain, monomeric (SARS-CoV-2, UniProt P0DTC2)
T1 construct: also called RBD; monomeric RBD
Test: SPR
Conditions: both partners purified

B1: CoVIC-259 (antibody, V domains shown)
VH: EVQLVESGGGVVQPGRSLRLSCAASGFTFSSYAMHWVRQAPGKGLEWVAVLSYDGSNKYNADSVKGRFTISRDNSKNTLYLQMNSLRVEDTAMYYCARDGVSVTMVRGVIGPLCDYWGQGTLVTVSS
VL: not shown
notes: also called RBD-1 community representative
Question: Does B1 bind?
Answer: Result: binds
